B1: mouse CD16 (mCD16), his-tagged (receptor, UniProt P08508 31-215, looked up)
chain: ALPKAVVKLDPPWIQVLKEDMVTLMCEGTHNPGNSSTQWFHNGRSIRSQVQASYTFKATVNDSGEYRCQMEQTRLSDPVDLGVISDWLLLQTPQRVFLEGETITLRCHSWRNKLLNRISFFHNEKSVRYHHYKSNFSIPKANHSHSGDYYCKGSLGSTQHQSKPVTITVQDPATTSSISLVWYHT
B2: hIgG4 bsAb by modular replacement: golimumab (Gmab) heavy chain with L6 light chain (bispecific antibody, V domains shown)
VH: QVQLVESGGGVVQPGRSLRLSCAASGFIFSSYAMHWVRQAPGNGLEWVAFMSYDGSNKKYADSVKGRFTISRDNSKNTLYLQMNSLRAEDTAVYYCARDRGIAAGGNYYYYGMDVWGQGTTVTVSS
VL: EIVLTQSPGTLSLSPGERATLSCRASGSTFSSYTLAWYQQKPGQAPRLLIYIYSDGGRTSRATGIPDRFSGSGSGTDLTLTISRLEPEDFAVYYCNAESPFYDYDYWGKGTKVEIK

How the values were obtained:
[1] = biological target: light-chain single-domain antibody L6 (mCD16-specific VHHL); test: BLI; settings: both partners purified
[2] = biological target: T1, human tumor necrosis factor alpha (hTNF-α)-His (human, UniProt P01375); test: BLI; settings: both partners purified
T1 construct: also called hTNF-a
T1 sequence (P01375 whole entry): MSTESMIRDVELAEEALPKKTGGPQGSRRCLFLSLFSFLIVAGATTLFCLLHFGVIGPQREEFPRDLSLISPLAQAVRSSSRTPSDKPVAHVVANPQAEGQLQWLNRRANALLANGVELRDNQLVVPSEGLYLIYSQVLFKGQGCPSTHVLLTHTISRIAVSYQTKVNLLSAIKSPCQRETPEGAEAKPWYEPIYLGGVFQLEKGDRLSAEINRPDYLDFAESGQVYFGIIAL

Row | Binder | Kd [1] | binding result [2]
1 | B1 | 54.3 ± 1.41 nM | 
2 | B2 |  | binds
